Patent US20250034258A1 (Merck Sharp & Dohme, published 2025)

Experiments:
human PD-L1 = molecular target: T1, human PD-L1 (human, UniProt Q9NZQ7 19-290); test: flow cytometry on CHO-K1.hPD-L1 cells, anti-FLAG detection
T1 construct: whole, on cells; also called hPD-L1; CHO-K1.hPD-L1
Description: CHO-K1.hPD-L1 cells were resuspended in Stain Buffer (PBS, 2% FBS, 0.05% sodium azide) and 1E5 cells/well were transferred to a 96-well V-bottom plate and centrifuged. Cells were suspended in 100 μL/well serial diluted VHH or anti-PD-L1 antibody (atezolizumab) in Stain Buffer and incubated for 30 minutes at 4° C. VHH binding was detected by resuspending the samples subsequently in 100 μL/well mouse a-FLAG antibody (Sigma: F1804) and detected with PE-labeled goat anti-mouse IgG (Jackson ImmunoResearch: 115-116-071) as detection antibody and 5 nM TOPRO3 (Molecular Probes: T3605) as dead dye. Between each step, the cells were collected via centrifugation for 5 minutes at 200×g and washed three times with 100 μL/well Stain Buffer.

human PD-1 = molecular target: T2, human PD-1 (human, UniProt Q15116 25-288); test: flow cytometry on CHO-K1.hPD-1 cells, anti-FLAG detection
T2 construct: whole, on cells; also called hPD-1; CHO-K1.hPD-1
T2 sequence (Q15116 25-288): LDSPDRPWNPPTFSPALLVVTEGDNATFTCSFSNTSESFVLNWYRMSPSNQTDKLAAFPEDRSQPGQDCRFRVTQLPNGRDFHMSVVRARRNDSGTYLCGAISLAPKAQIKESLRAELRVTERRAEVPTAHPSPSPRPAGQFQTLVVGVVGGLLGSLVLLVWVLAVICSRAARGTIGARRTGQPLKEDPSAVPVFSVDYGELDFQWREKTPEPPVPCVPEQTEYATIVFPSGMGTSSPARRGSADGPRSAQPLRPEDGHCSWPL

T1 sequence (Q9NZQ7 19-290): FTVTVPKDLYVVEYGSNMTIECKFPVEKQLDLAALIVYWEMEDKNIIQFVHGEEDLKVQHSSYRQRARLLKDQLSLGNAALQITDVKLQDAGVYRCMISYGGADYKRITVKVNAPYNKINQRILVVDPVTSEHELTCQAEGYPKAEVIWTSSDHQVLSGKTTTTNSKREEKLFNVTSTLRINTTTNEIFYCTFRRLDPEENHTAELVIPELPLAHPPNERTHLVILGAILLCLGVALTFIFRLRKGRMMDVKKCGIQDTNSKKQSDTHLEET

| Binder | binding result (human PD-L1) | binding result (human PD-1) |
| --- | --- | --- |
| α-PD-L1 VHH 3 (VHH) VHH: EVQLVESGGGLVQPGGSLRLSCAASGRTLSNHAMHWFRQAPGKEREFVSAITWSDGETYYEDSVKGRFTISRDNAKDTAYLEMQSLKPEDTAVYYCAAKMGGPTSIPGLVEYWGQGTLVTVSS | binds | – |
| α-PD-L1 VHH 2 (VHH) VHH: EVQLVESGGGLKQAGGSLRLSCTASARASTYIAMAWFRRTPGKAREFVAAITWSGGHTTYADSMKGRFTISRDNAKNTVYLHLNALQPEDAGVYYCAANQRNTVGPSEGAYPYWGQGTLVTVSS | binds | – |
| α-PD-L1 VHH (VHH, also called anti-PD-L1 VHH) VHH: EVQLVESGGGLVQAGGSLSVSCAPSGRTFSNYAMGWFRQAPGKEREFVARISGGGGYTAYADSVKGRFTIARDNAKNTVYLQMNSLKPEDTAVYYCAAGSIDSRQPYDSTRRYDYWGQGTLVTVSS | binds | – |
| α-PD-1 VHH (VHH, also called anti-PD-1 VHH) VHH: EVQLVESGGGLVQAGDSLRLSCVASGRTFSSYHMGWFRQAPGKEREFVAAIPRSGSNIGYSAFVKDRGTISRDNAKNTVYLQINNLAPDDTAVYYCAAKSAAGYYSGVVFTADYDYTYWGQGTLVTVSS | – | binds |
